According to publication PMC11199421:

Target: Phospholipase A1 (PlaA1) from Serratia marcescens, purified (Serratia marcescens)
Assay: SPR; Biacore T200; PlaA1 as ligand (diluted to 20 µg/mL), ∆N27 PlaS as analyte at 0, 0.156, 0.3125, 0.625, 1.25, 2.5 and 5 µM

N-terminal truncated PlaS (∆N27 PlaS) from Serratia marcescens, purified (domain or fragment)
Kd: 8.49 nM
koff: 1.26e-05 s⁻¹
kon: 1480 M⁻¹ s⁻¹
